Substitutions are numbered along the chain they refer to.
Tests used:
[1] = biological target: T1, biotinylated CD3 epsilon: delta heterodimer protein (Amsbio AMS.CDD-H52WO) (Homo sapiens (Human), UniProt P07766 23-126; P04234 22-105); assay: BLI (Octet), huSP34 variant in Fab format
Experimental: (§1) The CD3 binding kinetics of the purified huSP34 Fabs were determined using OctetRed384 (Pall ForteBio, CA) biolayer interferometry (BLI). […] Streptavidin (SA) coated biosensors tips (Pall ForteBio, CA) were used to capture biotinylated CD3 epsilon: delta heterodimer and typical immobilization levels captured on the SA sensors were 1 nm which approximately translates to 300 ng/ml of captured protein. For kinetic measurements biosensors were first pre-wetted with assay buffer for 10 minutes to remove protective sucrose coating followed by the recommended regeneration conditions for standardization of the biosensor surface for the experiment. In order to load the biosensors with antigen, 300 ng/ml of biotinylated CD3 epsilon: delta heterodimer protein (Amsbio AMS.CDD-H52WO) was immobilized on the SA sensor for 900 seconds. The CD3 loaded biosensors were then blocked with 20 ug/ml biocytin (sigma) for 200 seconds and then dipped into assay buffer containing wells for 200 seconds to remove any non-specific protein or unbound CD3 heterodimer.
(§2) CD3 loaded and biocytin blocked biosensors were then transferred into fresh assay buffer for 200 seconds to collect a baseline read. Kinetic measurements for anti-CD3 Fab and bispecific antibody binding were performed by dipping the CD3-coated biosensors into wells containing multiple concentrations of Fab or Ab (0-300 nM) for 100 seconds followed by a 300 second dissociation time by transferring the biosensors into assay buffer containing wells. The CD3 loaded sensors were then regenerated for the next kinetic measurement. Biosensors were generated by removing bound Fabs or Ab from immobilized CD3 on SA biosensors. Regeneration conditions used consisted of 3 cycles of 5 seconds of dipping the biosensors in Regeneration Buffer (10 mM Glycine HCl pH 1.5) followed by Assay Buffer (10 mM sodium phosphate pH 7.4, 140 mM Sodium Chloride, 0.005% Tween20 with 0.2% BSA).

[2] = biological target: T1, biotinylated CD3 epsilon: delta …; assay: BLI (Octet), corresponding huSP34 Fab variant
Experimental: as §1, §2

[3] = biological target: T2, CD3 expressed on cell-surface of primary human T cells (human, UniProt P07766 23-207; P04234 22-171); assay: flow cytometry competition vs murine SP34-AF488 on human T cells, n = 1
T2 construct: also called cell-surface CD3; human CD3
Experimental: (§3) Binding of humanized SP34 Fab variants to CD3 expressed on cell-surface of primary human T cells was evaluated in a flow cytometry-based competition assay.

[4] = biological target: T2, CD3 expressed on cell-surface of …; assay: flow cytometry competition vs murine SP34-AF488 on human T cells, n = 2
Experimental: as §3

[5] = biological target: T2, CD3 expressed on cell-surface of …; assay: flow cytometry competition vs murine SP34-AF488 on human T cells, average
Experimental: as §3

[6] = biological target: T1, biotinylated CD3 epsilon: delta …; assay: BLI (Octet), corresponding huSP34 Fab variant; remark: listed apart in the source
Experimental: as §1
CD3 loaded and biocytin blocked biosensors were then transferred into fresh assay buffer for 200 seconds to collect a baseline read. […]

[7] = biological target: T2, CD3 expressed on cell-surface of …; assay: flow cytometry competition vs murine SP34-AF488 on human T cells, n = 1; remark: listed apart in the source
Experimental: as §3
(§4) A second round of huSP34 Fab variants were characterized using the same flow cytometry-based competition assay as described above.

[8] = biological target: T2, CD3 expressed on cell-surface of …; assay: flow cytometry competition vs murine SP34-AF488 on human T cells, n = 2; remark: listed apart in the source
Experimental: as §3, §4

[9] = biological target: T2, CD3 expressed on cell-surface of …; assay: flow cytometry competition vs murine SP34-AF488 on human T cells, average; remark: listed apart in the source
Experimental: as §3, §4

[10] = biological target: T3, MabSelect SuRe (engineered Protein A); assay: 500 ml Expi293 expression, MabSelect SuRe capture and cation exchange; purified homodimer yield; parental reference
T3 construct: also called MabSelect SuRe column
Experimental: 500 ml of Expi293 cells were transfected with 0.5 mg DNA encoding selected huSP34 scFv-Fc Protein A knockout variants according to manufacturer's protocol. Four days post transfection, the cell-free clarified supernatant was collected and loaded to a MabSelect™ SuRe™ (Cytiva Life Sciences) column. Afterwards the column was washed with a low salt buffer of 25 mM Tris HCl pH 7.5, 25 mM NaCl for 10 column volumes (CV), then high salt wash of 25 mM Tris HCl pH 7.5, 500 mM NaCl for 5CV to remove non-specific binding, and finally washed with a low salt wash of 25 mM Tris HCl pH 7.5, 25 mM NaCl for 10CV. To elute the antibody, an isocratic elution step of 100 mM sodium acetate pH 3.7 was performed. The eluted pool was neutralized to pH 6.0 with 1 M Tris HCl pH 9.0, and subjected to a cation ion purification, HiTrap SP HP (Cytiva Life Sciences) to further remove impurities. The cation captured protein was washed with 10 mM sodium phosphate pH 7.0 for 10CV, then eluted in 0-30% gradient of 10 mM sodium phosphate pH 7.0, 1M NaCl for 50CV to separate the desired two targeting arm antibody (heterodimer) from the one targeted arm antibody (homodimer). […] Concentration of the formulated protein was measured by A280. Purity was assessed as percent monodispersed by analytical size-exclusion chromatography. Identity of the bispecific antibody was determined by Mass Spec (MS).

[11] = biological target: T2, CD3 expressed on cell-surface of …; assay: flow cytometry on PBMCs, % anti-huIgG+ CD4+ cells, donor hu 711
Experimental: (§5) Briefly, PBMCs from healthy human donors and healthy rhesus or cynomolgus monkey donors were incubated with different concentrations of HIV×CD3 bispecific molecules for 1 hour at RT. […] Cells were then washed, fixed/permeabilized, and analyzed on BD LSRFortessa. The percentage of α-huIgG-APC-positive CD4+ and CD8+ T cells and the mFI of the α-huIgG-APC of CD4+ and CD8+ cells were collected, and data analyzed using GraphPad Prism.

[12] = biological target: T2, CD3 expressed on cell-surface of …; assay: flow cytometry on PBMCs, % anti-huIgG+ CD4+ cells, donor hu 921
Experimental: as §5

[13] = biological target: T2, CD3 expressed on cell-surface of …; assay: flow cytometry on PBMCs, % anti-huIgG+ CD8+ cells, donor hu 711
Experimental: as §5

[14] = biological target: T2, CD3 expressed on cell-surface of …; assay: flow cytometry on PBMCs, % anti-huIgG+ CD8+ cells, donor hu 921
Experimental: as §5

[15] = biological target: T4, CD3 on cynomolgus monkey T cells in PBMCs (cynomolgus monkey, UniProt Q95LI5 22-198); assay: flow cytometry on PBMCs, % anti-huIgG+ CD4+ cells, donor cy 2177
T4 construct: whole, on cells; also called cynomolgus CD4+ and CD8+ T cells
T4 sequence (Q95LI5 22-198): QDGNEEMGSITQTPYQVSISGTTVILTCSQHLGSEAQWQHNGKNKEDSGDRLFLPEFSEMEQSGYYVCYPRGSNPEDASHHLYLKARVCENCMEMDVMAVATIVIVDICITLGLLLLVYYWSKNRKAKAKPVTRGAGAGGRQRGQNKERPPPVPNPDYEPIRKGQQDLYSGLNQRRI
Experimental: as §5

[16] = biological target: T4, CD3 on cynomolgus monkey T cells in …; assay: flow cytometry on PBMCs, % anti-huIgG+ CD8+ cells, donor cy 2177
Experimental: as §5

[17] = biological target: T2, CD3 expressed on cell-surface of …; assay: cell-based or functional assay
[18] = biological target: T2, CD3 expressed on cell-surface of …; assay: flow cytometry on human PBMCs, CD4+ cells, donor 3761
Experimental: (§6) Briefly, peripheral blood mononuclear cells (PBMCs) were incubated with different concentrations of HIV×CD3 bispecific molecules for 1 hour at RT. […] Cells were then washed, fixed/permeabilized, and analyzed using BD LSRFortessa according to the manufacturer's protocol. The percentage of α-huIgG-APC-positive CD4+ and CD8+ T cells and the mean fluorescence intensity of the α-huIgG-APC of CD4+ and CD8+ cells were collected, and data analyzed using GraphPad Prism.
(§7) Binding experiments were performed using PBMCs from two healthy human donors.

[19] = biological target: T2, CD3 expressed on cell-surface of …; assay: flow cytometry on human PBMCs, CD4+ cells, donor 4574
Experimental: as §6, §7

[20] = biological target: T2, CD3 expressed on cell-surface of …; assay: flow cytometry on human PBMCs, CD8+ cells, donor 3761
Experimental: as §6, §7

[21] = biological target: T2, CD3 expressed on cell-surface of …; assay: flow cytometry on human PBMCs, CD8+ cells, donor 4574
Experimental: as §6, §7

[22] = biological target: T2, CD3 expressed on cell-surface of …; assay: flow cytometry on PBMCs, % anti-huIgG+ CD4+ cells, donor hu 151
[23] = biological target: T2, CD3 expressed on cell-surface of …; assay: flow cytometry on PBMCs, % anti-huIgG+ CD4+ cells, donor hu 340
Experimental: as §5

[24] = biological target: T2, CD3 expressed on cell-surface of …; assay: flow cytometry on PBMCs, % anti-huIgG+ CD8+ cells, donor hu 151
Experimental: as §5

[25] = biological target: T2, CD3 expressed on cell-surface of …; assay: flow cytometry on PBMCs, % anti-huIgG+ CD8+ cells, donor hu 340
Experimental: as §5

[26] = biological target: CD3 on rhesus monkey T cells in PBMCs (rhesus monkey); assay: flow cytometry on PBMCs, % anti-huIgG+ CD4+ cells, donor rh 3483
Sequence of CD3 on rhesus monkey T cells in PBMCs (rhesus monkey) (P16003 26-458): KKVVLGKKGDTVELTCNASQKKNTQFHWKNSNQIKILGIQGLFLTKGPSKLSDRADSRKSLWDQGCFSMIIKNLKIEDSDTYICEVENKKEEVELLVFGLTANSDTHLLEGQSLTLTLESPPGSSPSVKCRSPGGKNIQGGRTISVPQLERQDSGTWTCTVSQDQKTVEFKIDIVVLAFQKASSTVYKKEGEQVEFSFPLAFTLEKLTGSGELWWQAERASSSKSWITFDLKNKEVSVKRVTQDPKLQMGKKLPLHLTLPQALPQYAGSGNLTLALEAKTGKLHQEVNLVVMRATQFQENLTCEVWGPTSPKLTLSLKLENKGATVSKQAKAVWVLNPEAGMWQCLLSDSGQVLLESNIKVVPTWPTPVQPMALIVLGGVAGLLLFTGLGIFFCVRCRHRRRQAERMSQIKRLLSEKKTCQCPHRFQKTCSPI

[27] = biological target: CD3 on rhesus monkey T cells in PBMCs (rhesus monkey); assay: flow cytometry on PBMCs, % anti-huIgG+ CD4+ cells, donor rh 3563
[28] = biological target: CD3 on rhesus monkey T cells in PBMCs (rhesus monkey); assay: flow cytometry on PBMCs, % anti-huIgG+ CD8+ cells, donor rh 3483
[29] = biological target: CD3 on rhesus monkey T cells in PBMCs (rhesus monkey); assay: flow cytometry on PBMCs, % anti-huIgG+ CD8+ cells, donor rh 3563

B1: huSP34.3.4 Fab-HF (Fab, V domains shown)
VH: EVQLVESGGGLVQPGGSLRLSCAASGFTFNTYAMNWVRQAPGKGLEWVGRIRSKYNNYATYYADSVKGRFTISRDDSKNSLYLQMNSLRTEDTAVYYCVRHGNFGHSYVSWFAYWGQGTLVTVSS
VL: QAVVTQEPSLTVSPGGTVTLTCGSSTGAVTTSHYANWVQQKPGQAPRGLIGGTSKRAPWTPARFSGSLLGGKAALTLSGAQPEDEAEYYCALWYSALWVFGGGTKLTVL
Work on B1 yielded a Kd [1] of 86 nM, a Kd [2] of 86 nM and an IC50 [3] of over 20 µg/mL. It also gave an IC50 [4] of 17.3 µg/mL and an IC50 [5] of 17.3 µg/mL.

B2: huSP34.13.8 Fab-HF (Fab, V domains shown)
VH: B1 VH with N30S, D64A, S80T
VL: B1 VL with S32G, S54N, W59G, T60V, L77I, A96N, L97R
B2 showed a Kd [6] of 2.49 nM, an IC50 [7] of 0.36 µg/mL and an IC50 [8] of 0.14 µg/mL. The IC50 [9] was 0.25 µg/mL.

B3: huSP34.4.2 Fab-HF (Fab, V domains shown)
VH: B1 VH with N30S, D64A, Y114V
VL: B1 VL with H33N, K55N, A96N
With B3 the Kd [6] was 45.3 nM, the IC50 [3] was over 20 µg/mL and the IC50 [4] was over 20 µg/mL.

B4: huSP34.3.6 Fab-HF (Fab, V domains shown)
VH: B1 VH
VL: B1 VL with E7P, S32G, K55N, W59G, T60V, L69S, L77I, L97R
Work on B4 yielded a Kd [1] of 19 nM, a Kd [2] of 19 nM and an IC50 [3] of 8.48 µg/mL. The IC50 [4] was 1.03 µg/mL and the IC50 [5] was 4.75 µg/mL.

B5: huSP34.13.10 Fab-HF (Fab, V domains shown)
VH: B1 VH with N30S, D64A, S80T
VL: B1 VL with E7P, S32G, S54N, W59G, T60V, L69S, L77I, A96N, L97R
B5 showed a Kd [1] of 1.8 nM, a Kd [2] of 1.8 nM and an IC50 [7] of 0.35 µg/mL. For the same binder, the IC50 [8] was 0.16 µg/mL and the IC50 [9] was 0.25 µg/mL.

B6: huSP34.13.8 scFv AAS + SAV + R (Fc fusion)
chain: EVQLVESGGGLVQPGGSLRLSCAASGFTFSTYAMNWVRQAPGKGLEWVGRIRSKYNNYATYYAASVKGRFTISRDDSKNTLYLQMNSLRTEDTAVYYCVRHGNFGHSYVSWFAYWGQGTLVTVSSGGGGSGGGGSGGGGSGGGGSQAVVTQEPSLTVSPGGTVTLTCGSSTGAVTTGHYANWVQQKPGQAPRGLIGGTNKRAPGVPARFSGSLLGGKAALTISGAQPEDEAEYYCALWYSNRWVFGGGTKLTVLEPKSSDKTHTCPPCPAPEAAGGPSVFLFPPKPKDTLMISRTPEVTCVVVDVSHEDPEVKFNWYVDGVEVHNAKTKPREEQYNSTYRVVSVLTVLHQDWLNGKEYKCKVSNKALPASIEKTISKAKGQPREPQVYTLPPSREEMTKNQVSLSCAVKGFYPSDIAVEWESNGQPENNYKTTPPVLDSDGSFFLVSKLTVDKSRWQQGNVFSCSVMHEALHNRYTQKSLSLSPGK
notes: also called huSP34.13.8scFv-Fc; parent
With B6 the “scFv-Fc Homodimer Yield Relative to WT (e.g. Protein A binding)” value [10] was 100%.

B7: hCD4 D1.22 Fc AAS + W + YTE/huSP34.39.13 AAS + SAV + R (bispecific antibody, human IgG1, lambda, L234A L235A)
chain: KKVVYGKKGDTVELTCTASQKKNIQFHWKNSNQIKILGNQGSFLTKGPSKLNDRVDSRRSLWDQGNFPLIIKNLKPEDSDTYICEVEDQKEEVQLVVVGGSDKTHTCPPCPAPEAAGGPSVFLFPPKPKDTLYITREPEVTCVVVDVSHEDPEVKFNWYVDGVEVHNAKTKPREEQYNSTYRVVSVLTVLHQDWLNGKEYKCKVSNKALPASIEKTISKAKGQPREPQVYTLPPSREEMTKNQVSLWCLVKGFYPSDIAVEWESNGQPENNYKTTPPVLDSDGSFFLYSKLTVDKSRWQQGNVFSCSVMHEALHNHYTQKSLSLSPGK
heavy: EVQLVESGGGLVQPGGSLRLSCAASGFTFNTYAMNWVRQAPGKGLEWVGRIRSKYNNYATYYADSVKSRFTISRDDSKNSLYLEMNSLRTEDTAVYYCVRHGNFGHSYVSWFAYWGQGTLVTVSSASTKGPSVFPLAPSSKSTSGGTAALGCLVKDYFPEPVTVSWNSGALTSGVHTFPAVLQSSGLYSLSSVVTVPSSSLGTQTYICNVNHKPSNTKVDKKVEPKSCDKTHTCPPCPAPEAAGGPSVFLFPPKPKDTLMISRTPEVTCVVVDVSHEDPEVKFNWYVDGVEVHNAKTKPREEQYNSTYRVVSVLTVLHQDWLNGKEYKCKVSNKALPASIEKTISKAKGQPREPQVYTLPPSREEMTKNQVSLSCAVKGFYPSDIAVEWESNGQPENNYKTTPPVLDSDGSFFLVSKLTVDKSRWQQGNVFSCSVMHEALHNRYTQKSLSLSPGK
light: QAVVTQEPSLTVSPGGTVTLTCGSSTGAVTTGHYANWVQQKPGQAPRGLIGGTSNRAPGVPARFSGSLLGGKAALTISGAQPEDEAEYYCALWYSNRWVFGGGTKLTVLGQPKAAPSVTLFPPSSEELQANKATLVCLISDFYPGAVTVAWKADSSPVKAGVETTTPSKQSNNKYAASSYLSLTPEQWKSHRSYSCQVTHEGSTVEKTVAPTECS
notes: also called 180; CD4 x huSP34 bispecific 180
For B7, the EC50 [11] was 0.54 µg/mL, the EC50 [12] was 0.09 µg/mL and the EC50 [13] was 1.1 µg/mL. The EC50 [14] was 0.08 µg/mL, the EC50 [15] was 0.5 µg/mL and the EC50 [16] was 1.09 µg/mL.

B8: hPGT121.66 AAS + W/huSP34.1.3 scFv AAS + SAV + RF (bispecific antibody, human IgG1, lambda, L234A L235A)
chain: not shown
heavy: QMQLQESGPGLVKPSETLSLTCSVSGASISDSYWSWIRRSPGKGLEWIGYVHKSGDTNYNPSLKSRVHLSLDTSKNQVSLSLTGVTAADSGKYYCARTLHGRRIYGIVAFNEWFTYFYMDVWGTGTQVTVSSASTKGPSVFPLAPSSKSTSGGTAALGCLVKDYFPEPVTVSWNSGALTSGVHTFPAVLQSSGLYSLSSVVTVPSSSLGTQTYICNVNHKPSNTKVDKKVEPKSCDKTHTCPPCPAPEAAGGPSVFLFPPKPKDTLMISRTPEVTCVVVDVSHEDPEVKFNWYVDGVEVHNAKTKPREEQYNSTYRVVSVLTVLHQDWLNGKEYKCKVSNKALPASIEKTISKAKGQPREPQVYTLPPSREEMTKNQVSLWCLVKGFYPSDIAVEWESNGQPENNYKTTPPVLDSDGSFFLYSKLTVDKSRWQQGNVFSCSVMHEALHNHYTQKSLSLSPGK
light: not shown
With B8 the “killing EC50, primary HIV-infected CD4+ cells, PBMC effector cells, isolate 657” value [17] was 1.61 µg/mL, the “killing EC50, primary HIV-infected CD4+ cells, PBMC effector cells, isolate 7552” value [17] was 0.107 µg/mL and the EC50 [18] was 0.32 µg/mL. The EC50 [19] was 0.33 µg/mL, the EC50 [20] was 0.36 µg/mL and the EC50 [21] was 0.35 µg/mL. The EC50 [22] was 0.41 µg/mL, the EC50 [23] was 0.42 µg/mL and the EC50 [24] was 0.44 µg/mL. It also gave an EC50 [25] of 0.68 µg/mL, an EC50 [26] of 0.33 µg/mL and an EC50 [27] of 0.4 µg/mL. It also gave an EC50 [28] of 0.55 µg/mL and an EC50 [29] of 1.02 µg/mL.

Reference: patent publication US20230056252A1 (Gilead, published 2023)
